In patent US20090285813A1:

B1: anti-CD3 HuFR antibody 1 (heavy chain BD20610, light chain BD21130) (antibody, part only; not given: Heavy stretch before framework 4, V domains shown, part only)
VH, part: QVQLVESGAEVKKPGASVKVSCKASGYTFTRYTMHWVRQAPGKGLEWMGYINPSRGYTNYNQKFKDRVTISVDTSKNQFSLKLSSVTAADTAVYYCARYYDDHYCLDYVTVSSASTKGPS
VL: DIQMTQSPSSLSASVGDRVTITCSASSSVSYMNWYQQKPGQPPKLLIYDTSKLASGVPDRFSGSGSGTDFTLKISRVEAEDVGVYYCQQWSSNPFTFGQGTKVEIKFGQGTKVEIKR
B2: anti-CD3 HuFR antibody 2 (heavy chain BD20613, light chain BD21131) (antibody, part only; not given: few VH framework 4 residues, V domains shown, part only)
VH, part: QVQLQESGPGLVKPSETLSLTCAVSGYTFTRYTMHWVRQAPGKGLEWVGYINPSRGYTNYNQKFKDRFTISRDDSKNTAYLQMNSLKTEDTAVYYCTRYYDDHYCLDYVTVSSASTKGPS
VL: DIQMTQSPSTLSASVGDRVTITCSASSSVSYMNWYQQKPGQAPRLLIYDTSKLASGVPDRFSGSGSGTDFTLKISRVEAEDVGVYYCQQWSSNPFTFGQGTKVEIKFGQGTKVEIKR
B3: anti-CD3 HuFR antibody 3 (heavy chain BD20611, light chain BD21132) (antibody, part only; not given: Heavy stretch before framework 4, V domains shown, part only)
VH, part: QVQLVESGAEVKKPGASVKVSCKASGYTFTRYTMHWVRQAPGKGLEWMGYINPSRGYTNYNQKFKDRLTISKDTSKNQVVLTMTNMDPVDTATYYCARYYDDHYCLDYVTVSSASTKGPS
VL: EIVLTQSPATLSLSPGERATLSCSASSSVSYMNWYQQKPGKAPKLLIYDTSKLASGVPSRFSGSGSGTEFTLTISSLQPDDFATYYCQQWSSNPFTFGQGTKVEIKFGQGTKVEIKR
B4: anti-CD3 HuFR antibody 4 (heavy chain BD20611, light chain BD21133) (antibody, part only; not given: Heavy stretch before framework 4, V domains shown, part only)
VH, part: QVQLVESGAEVKKPGASVKVSCKASGYTFTRYTMHWVRQAPGKGLEWMGYINPSRGYTNYNQKFKDRLTISKDTSKNQVVLTMTNMDPVDTATYYCARYYDDHYCLDYVTVSSASTKGPS
VL: DIVMTQSPLSLPVTPGEPASISCSASSSVSYMNWYQQKPGQPPKLLIYDTSKLASGVPSRFSGSGSGTEFTLTISSLQPDDFATYYCQQWSSNPFTFGQGTKVEIKFGQGTKVEIKR
B5: anti-CD3 HuFR antibody 5 (heavy chain BD20611, light chain BD21134) (antibody, part only; not given: Heavy stretch before framework 4, V domains shown, part only)
VH, part: QVQLVESGAEVKKPGASVKVSCKASGYTFTRYTMHWVRQAPGKGLEWMGYINPSRGYTNYNQKFKDRLTISKDTSKNQVVLTMTNMDPVDTATYYCARYYDDHYCLDYVTVSSASTKGPS
VL: EIVMTQSPATLSVSPGERATLSCSASSSVSYMNWYQQKPGQPPKLLIYDTSKLASGVPSRFSGSGSGTEFTLTISSLQPDDFATYYCQQWSSNPFTFGQGTKVEIKFGQGTKVEIKR
B6: anti-CD3 HuFR antibody 6 (heavy chain BD20611, light chain BD21135) (antibody, part only; not given: Heavy stretch before framework 4, V domains shown, part only)
VH, part: QVQLVESGAEVKKPGASVKVSCKASGYTFTRYTMHWVRQAPGKGLEWMGYINPSRGYTNYNQKFKDRLTISKDTSKNQVVLTMTNMDPVDTATYYCARYYDDHYCLDYVTVSSASTKGPS
VL: EIVMTQSPATLSVSPGERATLSCSASSSVSYMNWYQQKPGQAPRLLIYDTSKLASGVPDRFSGSGSGTDFTLTISSLQAEDVAVYYCQQWSSNPFTFGQGTKVEIKFGQGTKVEIKR
B7: anti-CD3 HuFR antibody 7 (heavy chain BD20611, light chain BD21136) (antibody, part only; not given: Heavy stretch before framework 4, V domains shown, part only)
VH, part: QVQLVESGAEVKKPGASVKVSCKASGYTFTRYTMHWVRQAPGKGLEWMGYINPSRGYTNYNQKFKDRLTISKDTSKNQVVLTMTNMDPVDTATYYCARYYDDHYCLDYVTVSSASTKGPS
VL: DIQMTQSPSTLSASVGDRVTITCSASSSVSYMNWYQQKPGKAPKLLIYDTSKLASGIPDRFSGSGSGTDFTLTISRLEPEDFAVYYCQQWSSNPFTFGQGTKVEIKFGQGTKVEIKR
B8: anti-CD3 HuFR antibody 8 (heavy chain BD20611, light chain BD21137) (antibody, part only; not given: few VH framework 4 residues, V domains shown, part only)
VH, part: QVQLVESGAEVKKPGASVKVSCKASGYTFTRYTMHWVRQAPGKGLEWMGYINPSRGYTNYNQKFKDRLTISKDTSKNQVVLTMTNMDPVDTATYYCARYYDDHYCLDYVTVSSASTKGPS
VL: DIQMTQSPSTLSASVGDRVTITCSASSSVSYMNWYQQKPGQPPKLLIYDTSKLASGVPSRFSGSGSGTDFTFTISSLQPEDIATYYCQQWSSNPFTFGQGTKVEIKFGQGTKVEIKR
B9: anti-CD3 HuFR antibody 9 (heavy chain BD20613, light chain BD21138) (antibody, part only; not given: few VH framework 4 residues, V domains shown, part only)
VH, part: QVQLQESGPGLVKPSETLSLTCAVSGYTFTRYTMHWVRQAPGKGLEWVGYINPSRGYTNYNQKFKDRFTISRDDSKNTAYLQMNSLKTEDTAVYYCTRYYDDHYCLDYVTVSSASTKGPS
VL: DIQMTQSPSTLSASVGDRVTITCSASSSVSYMNWYQQKPGKAPKLLIYDTSKLASGVPDRFSGSGSGTDFTLKISRVEAEDVGVYYCQQWSSNPFTFGQGTKVEIKFGQGTKVEIKR

The binders below were run against human CD3 (human) (UniProt P07766) (assay: cell-based or functional assay).
Chain of human CD3 (human) (P07766 23-207): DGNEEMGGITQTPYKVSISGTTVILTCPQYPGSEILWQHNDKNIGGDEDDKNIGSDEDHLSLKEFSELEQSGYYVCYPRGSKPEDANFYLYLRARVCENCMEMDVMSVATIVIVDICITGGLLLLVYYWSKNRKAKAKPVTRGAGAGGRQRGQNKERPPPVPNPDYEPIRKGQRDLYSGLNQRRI
Work on B1 yielded an Apo-One Apoptosis Assay, 12.5 ng/ml of 797, an Apo-One Apoptosis Assay, 12.5 ng/ml, second block (ratio to Fc null) of 1.6 and an Apo-One Apoptosis Assay, 25 ng/ml of 1220. For the same binder, the Apo-One Apoptosis Assay, 25 ng/ml, second block (ratio to Fc null) was 1.7, the Apo-One Apoptosis Assay, 50 ng/ml was 1750 and the Apo-One Apoptosis Assay, 50 ng/ml, second block (ratio to Fc null) was 1.5. B2 gave an Apo-One Apoptosis Assay, 12.5 ng/ml of 854, an Apo-One Apoptosis Assay, 12.5 ng/ml, second block (ratio to Fc null) of 1.7 and an Apo-One Apoptosis Assay, 25 ng/ml of 1440. For the same binder, the Apo-One Apoptosis Assay, 25 ng/ml, second block (ratio to Fc null) was 2, the Apo-One Apoptosis Assay, 50 ng/ml was 2160 and the Apo-One Apoptosis Assay, 50 ng/ml, second block (ratio to Fc null) was 1.8. B3 showed an Apo-One Apoptosis Assay, 12.5 ng/ml of 649, an Apo-One Apoptosis Assay, 12.5 ng/ml, second block (ratio to Fc null) of 1.3 and an Apo-One Apoptosis Assay, 25 ng/ml of 854. For the same binder, the Apo-One Apoptosis Assay, 25 ng/ml, second block (ratio to Fc null) was 1.2, the Apo-One Apoptosis Assay, 50 ng/ml was 1130 and the Apo-One Apoptosis Assay, 50 ng/ml, second block (ratio to Fc null) was 1. B4 gave an Apo-One Apoptosis Assay, 12.5 ng/ml of 1390, an Apo-One Apoptosis Assay, 12.5 ng/ml, second block (ratio to Fc null) of 2.8 and an Apo-One Apoptosis Assay, 25 ng/ml of 2350. For the same binder, the Apo-One Apoptosis Assay, 25 ng/ml, second block (ratio to Fc null) was 3.2, the Apo-One Apoptosis Assay, 50 ng/ml was 3300 and the Apo-One Apoptosis Assay, 50 ng/ml, second block (ratio to Fc null) was 2.8. Binder B5 has an Apo-One Apoptosis Assay, 12.5 ng/ml of 1160, an Apo-One Apoptosis Assay, 12.5 ng/ml, second block (ratio to Fc null) of 2.4 and an Apo-One Apoptosis Assay, 25 ng/ml of 1660. For the same binder, the Apo-One Apoptosis Assay, 25 ng/ml, second block (ratio to Fc null) was 2.3, the Apo-One Apoptosis Assay, 50 ng/ml was 2160 and the Apo-One Apoptosis Assay, 50 ng/ml, second block (ratio to Fc null) was 1.8. Binder B6 has an Apo-One Apoptosis Assay, 12.5 ng/ml of 1280, an Apo-One Apoptosis Assay, 12.5 ng/ml, second block (ratio to Fc null) of 2.6 and an Apo-One Apoptosis Assay, 25 ng/ml of 2220. For the same binder, the Apo-One Apoptosis Assay, 25 ng/ml, second block (ratio to Fc null) was 3.1, the Apo-One Apoptosis Assay, 50 ng/ml was 3500 and the Apo-One Apoptosis Assay, 50 ng/ml, second block (ratio to Fc null) was 2.9. Binder B7 has an Apo-One Apoptosis Assay, 12.5 ng/ml of 2270, an Apo-One Apoptosis Assay, 12.5 ng/ml, second block (ratio to Fc null) of 4.6 and an Apo-One Apoptosis Assay, 25 ng/ml of 3480. It also gave an Apo-One Apoptosis Assay, 25 ng/ml, second block (ratio to Fc null) of 4.8, an Apo-One Apoptosis Assay, 50 ng/ml of 4740 and an Apo-One Apoptosis Assay, 50 ng/ml, second block (ratio to Fc null) of 4. Binder B8 has an Apo-One Apoptosis Assay, 12.5 ng/ml of 969, an Apo-One Apoptosis Assay, 12.5 ng/ml, second block (ratio to Fc null) of 2 and an Apo-One Apoptosis Assay, 25 ng/ml of 1630. For the same binder, the Apo-One Apoptosis Assay, 25 ng/ml, second block (ratio to Fc null) was 2.2, the Apo-One Apoptosis Assay, 50 ng/ml was 2560 and the Apo-One Apoptosis Assay, 50 ng/ml, second block (ratio to Fc null) was 2.1. With B9 the Apo-One Apoptosis Assay, 12.5 ng/ml was 885, the Apo-One Apoptosis Assay, 12.5 ng/ml, second block (ratio to Fc null) was 1.8 and the Apo-One Apoptosis Assay, 25 ng/ml was 1380. The Apo-One Apoptosis Assay, 25 ng/ml, second block (ratio to Fc null) was 1.9, the Apo-One Apoptosis Assay, 50 ng/ml was 2040 and the Apo-One Apoptosis Assay, 50 ng/ml, second block (ratio to Fc null) was 1.7.
